# Test results taken from EP1834963A1, “Di-polymer protein conjugates and processes for their preparation” (priority 2006, dated 2007).
# Tests used:
# [1] = in vivo clearance (pharmacokinetic) studies in sham-operated and nephrectomised rats; conditions: intravenous 0.005 mg/kg; for clearance mechanism: sham-operated and nephrectomised rats, inferred from similar kinetics
# Description: The clearance mechanism of (i) the Di-PEG G-CSF product mixture (43 kDa total MW) comprising di-PEG 12kDa G-CSF and […] isoforms according to example A6 and of (ii) the single isoform, Di'-PEG 20kDa G-CSF conjugate (59 kDa total MW) according to example B, was tested in vivo in comparison to commercially available mono-pegylated G-CSF (Neulasta®)
# The in vivo studies were open randomized, parallel- grouped clearance studies of Neulasta® with either the Di-PEG G-CSF product mixture or the single di'-PEG 20kDa G-CSF conjugate isoform in sham-operated (control group) and nephrectomised rats. The studies were carried out by intravenous injection of 0.005 mg/kg of the conjugate to male rats. Four animals per group per time point were subjected to bleeding. The remaining G-CSF plasma concentration was determined in the serum samples and relevant pharmacokinetic data such as the plasma elimination half-life were calculated.
# male rats [2] = assay: in vivo single dose biocomparability study of di-PEG G-CSF product with Neupogen and Neulasta (WBC and neutrophil counts); conditions: single subcutaneous injection 0.1 mg/kg
# Description: The di-PEG G-CSF product comprising a mixture of di- and di' PEG G-CSF conjugate isoforms according to the invention was tested in vivo, to show the improved activity versus unmodified G-CSF (Neupogen®) and to compare its biological activity with commercially available mono-pegylated G-CSF (Neulasta®).
# The in vivo study was an open randomized, parallel- grouped single dose biocomparability study of Neupogen® and Neulasta® with the di-PEG G-CSF product. It was carried out by subcutaneously injecting 0.1 mg/kg to male rats. Six animals per group per time point were subjected to bleeding. Serum samples were subjected to a complete blood count on the same day that the samples were collected. The average white blood cell counts and neutrophil counts were calculated.
# male rats [3] = assay: in vivo single dose biocomparability study of Di'-PEG 20kDa G-CSF isoform with Neupogen and Neulasta (WBC and neutrophil counts); conditions: single subcutaneous injection 0.1 mg/kg; for average white blood cell counts (WBC) and WBC response: Figure 14; for average neutrophil counts and neutrophil response: Figure 15
# Description: For testing the biological activity of the Di'-PEG 20kDa G-CSF conjugate isoform in vivo, the single isoform was highly purified by preparative cation exchange chromatography. The defined product contained at least 95% di'-PEG G-CSF conjugate isoform as described in example A 6, paragraph d)ii). The in vivo study was an open randomized, parallel- grouped single dose biocomparability study of Neupogen® and Neulasta® with the single di'-PEG G-CSF conjugate isoform. It was carried out by subcutaneously injecting 0.1 mg/kg to male rats. Six animals per group per time point were subjected to bleeding. Serum samples were subjected to a complete blood count on the same day that the samples were collected. The average white blood cell counts and neutrophil counts were calculated.
# [4] = NE - nephrectomised rats, PK study Neulasta vs Di-PEG 12kDa G-CSF mixture
# [5] = SH - sham operated rats, PK study Neulasta vs Di-PEG 12kDa G-CSF mixture
# [6] = NE - nephrectomised rats, PK study Neulasta vs Di'-PEG 20kDa G-CSF isoform
# [7] = SH - sham operated rats, PK study Neulasta vs Di'-PEG 20kDa G-CSF isoform
# [8] = compared to unmodified G-CSF (Neupogen®)
Molecule,"Elimination half-life [1, 4] [h]","Elimination half-life [1, 5] [h]",clearance mechanism [1],"average white blood cell counts (WBC) (male rats [2]; compared to Neulasta®, Figure 8)","average neutrophil counts (male rats [2]; compared to Neulasta®, Figure 9)","average white blood cell counts (WBC) and WBC response (male rats [2]; compared to unmodified G-CSF (Neupogen®), Figure 8)","average neutrophil counts and neutrophil response (male rats [2]; compared to unmodified G-CSF (Neupogen®), Figure 9)","Elimination half-life [1, 6] [h]","Elimination half-life [1, 7] [h]",average white blood cell counts (WBC) and WBC response (male rats [3]; compared to Neulasta®),average neutrophil counts and neutrophil response (male rats [3]; compared to Neulasta®),average white blood cell counts (WBC) and WBC response (male rats [3]; [8]),average neutrophil counts and neutrophil response (male rats [3]; [8])
"Di-PEG 12kDa G-CSF mixture (conjugate, UniProt P09919 31-207, looked up, two 12 kDa PEG chains) Granulocyte …: TPLGPASSLPQSFLLKCLEQVRKIQGDGAALQEKLVSECATYKLCHPEELVLLGHSLGIPWAPLSSCPSQALQLAGCLSQLHSGLFLYQGLLQALEGISPELGPTLDTLQLDVADFATTIWQQMEELGMAPALQPTQGAMPAFASAFQRRAGGVLVASHLQSFLEVSYRVLRHLAQP",3.4,2.9,predominantly cleared by Neutrophil Receptor-mediated clearance,"at least biosimilar, perhaps potentially better, because of slightly higher maximum WBC and neutrophil counts","at least biosimilar, perhaps potentially better, because of slightly higher maximum WBC and neutrophil counts",higher WBC and neutrophil counts and longer sustained WBC and neutrophil response,higher WBC and neutrophil counts and longer sustained WBC and neutrophil response,–,–,–,–,–,–
"Di'-PEG 20kDa G-CSF isoform (conjugate, UniProt P09919 31-207, looked up, two 20 kDa PEG chains) Granulocyte …: TPLGPASSLPQSFLLKCLEQVRKIQGDGAALQEKLVSECATYKLCHPEELVLLGHSLGIPWAPLSSCPSQALQLAGCLSQLHSGLFLYQGLLQALEGISPELGPTLDTLQLDVADFATTIWQQMEELGMAPALQPTQGAMPAFASAFQRRAGGVLVASHLQSFLEVSYRVLRHLAQP",–,–,predominantly cleared by Neutrophil Receptor-mediated clearance,–,–,–,–,3.7,3.3,bioimproved because of higher maximum WBC and neutrophil counts and its sustained WBC and neutrophil response,bioimproved because of higher maximum WBC and neutrophil counts and its sustained WBC and neutrophil response,i) higher WBC and neutrophil counts and ii) showed a sustained WBC and neutrophil response,i) higher WBC and neutrophil counts and ii) showed a sustained WBC and neutrophil response
"Neulasta (conjugate, UniProt P09919 31-207, looked up, pegfilgrastim; N-terminal Met, 20 kDa PEG) Granulocyte …: TPLGPASSLPQSFLLKCLEQVRKIQGDGAALQEKLVSECATYKLCHPEELVLLGHSLGIPWAPLSSCPSQALQLAGCLSQLHSGLFLYQGLLQALEGISPELGPTLDTLQLDVADFATTIWQQMEELGMAPALQPTQGAMPAFASAFQRRAGGVLVASHLQSFLEVSYRVLRHLAQP",2.5,1.9,predominantly cleared by Neutrophil Receptor-mediated clearance,–,–,–,–,2.1,1.9,–,–,–,–
